Results on 1 molecule are retold here after publication PMC4936993, “Preparation of a functional fluorescent human Fas ligand extracellular domain derivative using a three-dimensional structure guided site-specific fluorochrome conjugation” (SpringerPlus, 2016).

The target in this assay is T1, FL-5Mal conjugated NFG1CG4-hFasLECD (human, UniProt P48023 139-281, N184Q | N250Q, Fluorescein-5-Maleimide conjugated to the unpaired cysteine in the N-terminal tag sequence (estimated 2.5 per trimer, approximately 83 % of the cysteines)).
T1 construct: linker of the N-terminal tag, between FLAG (DYKDDDDK) and residue 139 of hFasLECD; printed in three-letter code; its Cys is the conjugation site; human Fas ligand (CD178) extracellular domain with residues 103-138 deleted: hFasLECD (139-281, N184Q, N250Q); It calls the protein a trimer in words only; also called Fluorescein-5-Maleimide conjugated human Fas ligand extracellular domain derivative; …
T1 sequence: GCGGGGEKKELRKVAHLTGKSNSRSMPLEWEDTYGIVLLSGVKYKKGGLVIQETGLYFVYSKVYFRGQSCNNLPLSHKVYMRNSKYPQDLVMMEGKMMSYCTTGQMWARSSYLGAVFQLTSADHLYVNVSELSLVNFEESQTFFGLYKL
Briefly: SEC; mixtures of hFasRECD-Fc and the conjugate in several amount ratios on Superdex 200 10/300 GL; 50 mM Tris-hydrochloride, 150 mM sodium chloride, pH 7.5; 0.5 ml/min; absorbance at 280 and 495 nm. The settings on record: both partners purified.

B1: human Fas receptor extracellular domain—human IgG1 Fc domain fusion protein (Fc fusion, UniProt P25445 26-173, looked up)
chain: QVTDINSKGLELRKTVTTVETQNLEGLHHDGQFCHKPCPPGERKARDCTVNGDEPDCVPCQEGKEYTDKAHFSSKCRRCRLCDEGHGLEVEINCTRTQNTKCRCKPNFFCNSTVCEHCDPCTKCEHGIIKECTLTSNTKCKEEGSRSN
notes: human Fas receptor (CD95) extracellular domain; also called hFasRECD-Fc; source: baculovirus—Bombyx mori larvae expression system, purified (Hi-Trap Protein G HP, Mono Q 10/10; main peak also by Superdex 200)
For the molecule B1, the binding result was “binds”.
